Reference: patent publication US20140193400A1 (ESBATECH AN ALCON BIOMEDICAL RESEARCH UNIT, published 2014)
Numbering of substitutions follows the chain as printed. Where two headings read alike, the source gives them in different places. Blank lines part the entries; values can stand above or below the molecule they belong to.

Assays:
[1] = target: T1, recombinant human TNFalpha (human, UniProt P01375 77-233); assay: cell-based or functional assay
[2] = target: T1, recombinant human TNFalpha; assay: cell-based or functional assay; remark: listed apart in the source
[3] = target: T1, recombinant human TNFalpha; assay: secretion ELISA on TNFα, bacterial culture supernatant not normalised for single-chain antibody content
[4] = target: T2, Human TNFa N-his trimers (His-tagged TNF, produced at ESBATech) (human, UniProt P01375 77-233); assay: SPR (BIAcore T100), His-tagged human TNF captured on NTA chip, scFv as analyte
T2 construct: Captured as trimers on a Ni-NTA sensor chip by the N-terminal His tags in the Biacore assay of the general methods; also called human TNFα; human TNF alpha; not shown: N-terminal His tag
Protocol: (§1) For binding affinity measurements at pH5 and pH 7.4 (data not shown), surface Plasmon resonance measurements with BIAcore™-T 100 were employed using a NTA sensor chip and His-tagged TNF (produced at ESBATech). The surface of the NTA sensor chip consists of a carboxymethylated dextran matrix pre-immobilized with nitrilotriacetic acid (NTA) for capture of histidine tagged molecules via Ni2+NTA chelation. Human TNFa N-his trimers (5 nM) are captured by the nickel via their N-terminal his-tags and ESBA105 (analyte) is injected at several concentrations ranging from 30 nM to 0.014 nM in 3 fold serial dilution steps. At the regeneration step, the complex formed by nickel, ligand and analyte is washed away. This allows the use of the same regeneration conditions for different samples. The response signal is generated by surface Plasmon resonance (SPR) technology and measured in resonance units (RU). All the measurements are performed at 25° C. Sensorgrams were generated for each anti-TNF scFv sample after in-line reference cell correction followed by buffer sample subtraction. The apparent dissociation rate constant (kd), the apparent association rate constant (kₐ) and the apparent dissociation equilibrium constant (KD) were calculated using one-to-one Langmuir binding model with BIAcore T100 evaluation Software version 1.1.

[5] = target: T1, recombinant human TNFalpha; assay: cell-based or functional assay; remark: listed apart in the source
[6] = target: T2, Human TNFa N-his trimers (His-tagged …); assay: SPR (BIAcore), His-tagged human TNF captured on NTA chip, scFv as analyte; units taken from paragraph 184
Protocol: as §1

[7] = target: T1, recombinant human TNFalpha; assay: cell-based or functional assay; remark: listed apart in the source
[8] = target: T1, recombinant human TNFalpha; assay: cell-based or functional assay; remark: listed apart in the source

T2 sequence (P01375 77-233 limits assumed): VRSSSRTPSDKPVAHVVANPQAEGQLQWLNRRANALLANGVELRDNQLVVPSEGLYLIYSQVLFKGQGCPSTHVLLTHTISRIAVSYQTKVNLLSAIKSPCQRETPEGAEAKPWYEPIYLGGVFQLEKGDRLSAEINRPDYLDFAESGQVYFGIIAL
T1 sequence (P01375 77-233 limits assumed): as above

Molecule: Adalimumab (antibody)
IC50, block of cytotoxic activity (murine L929 cells, 1000 pg/ml TNF) [1]: 8.46 ng/mL
IC50, block of cytotoxic activity (human Kym-1 cells, 10 pg/ml TNF) [2]: 66.2 ng/mL
IC50, block of cytotoxic activity (murine L929 cells, 1000 pg/ml TNF) [2]: 8.45 ng/mL

B2: EP43_max (scFv)
scFv: EIVMTQSPSTLSASVGDRVIIKCQASQSISDWLAWYQQKPGKAPKLLIYGASRLASGFPSRFSGSGSGAEFTLTISGLEPADFATYYCQQGWSDSYVDNLFGQGTKLTVLGGGGGSGGGGSGGGGSGGGGSEVQLVESGGGLVQPGGSLRLSCTVSGFSLSSGAMSWVRQAPGKGLEWVGVIISSGATYYASWAKGRFTISKDTSKNTVYLQMNSLRAEDTAVYYCARGGPDDSNSMGTFDPWGQGTLVTVSS
notes: scFv NH2-VL-(GGGGS)4-VH-COOH; also called 676
Kd [4]: 0.251 nM
koff [4]: 4.48e-05 s⁻¹
kon [4]: 178000 M⁻¹ s⁻¹
L929* [EC50-E105/EC50-X], potency relative to ESBA105 [5]: 6.4 ratio EC50 ESBA105/EC50 X (mass units, ng/ml)
Kd [6]: 0.249 nM
koff [6]: 5.68e-05 s⁻¹
kon [6]: 228000 M⁻¹ s⁻¹
L929* [EC50-E105/EC50-X], potency relative to ESBA105 [7]: 6.4 ratio EC50 ESBA105/EC50 X (mass units, ng/ml)
EC50, L929 potency assay [8]: 1 ng/mL

B4: EP43_maxDHP (scFv)
scFv: B2 scFv with L142S, V223T, L248S
Kd [6]: 0.116 nM
koff [6]: 2.73e-05 s⁻¹
kon [6]: 235000 M⁻¹ s⁻¹
L929* [EC50-E105/EC50-X], potency relative to ESBA105 [7]: 6.7 ratio EC50 ESBA105/EC50 X (mass units, ng/ml)

Results, then the molecule that gave them:

binding result [3]: binds
B1: 34min (scFv)
scFv (VL-linker-VH): EIVMTQSPSTLSASVGDRVIITCQSSQSVYGNIWMAWYQQKPGKAPKLLIYQASKLASGVPSRFSGSGSGAEFTLTISSLQPDDFATYYCQGNFNTGDRYAFGQGTKLTVLGGGGGSGGGGSGGGGSGGGGSEVQLVESGGGLVQPGGSLRLSCAASGFTISRSYWICWVRQAPGKGLEWVSCIYGDNDITPLYANWAKGRFTISRDNSKNTLYLQMNSLRAEDTAVYYCAKLGYADYAYDLWGQGTLVTVSS
notes: also called EP34min; EP34_min

Kd [6]: 0.868 nM
koff [6]: 0.000198 s⁻¹
kon [6]: 228000 M⁻¹ s⁻¹
L929* [EC50-E105/EC50-X], potency relative to ESBA105 [7]: 1.6 ratio EC50 ESBA105/EC50 X (mass units, ng/ml)
B3: EP43_minmax (scFv)
scFv: B2 scFv with K22T, F58V, G77S, E79Q, A81D
notes: Min graft VL with max graft VH; also called 958
